# Test results as given in US20260234247A1 (published 2026).
# Positions count from the first letter of the chain named.
# B1: LK-RB2-18 (antibody, human IgG4 S228P, kappa, V domains shown)
# VH: EVQLQQSGPELVKPGTSVKISCKASGYTFTDYYMNWVKQSHGKSLEWIGDINPNNGGTSYNQKFKGKATLTVDKSSSTAYMELRSLTSEDSAVFYCARSGTTVVGTYWYFDVWGTGTTVTVSS
# VL: DIQMTQSPASLSVSVGETVTITCRASENIYSNLAWYQQKQGKSPQLLVYGATNLADGVPSRFSGSGSGTQYSLKINSLQSEDFGSYYCQHFWDTPFTFGSGTKLEIKR
# B2: LK-RB2-13 (antibody, human IgG4 S228P, kappa, V domains shown)
# VH: QIQLVQSGPELKKPGETVKISCKASGYTFTTYGMSWVKQAPGKGLQWMGWINTYSGVPTFADDFKGRFAFSLDTSASTAYLQINNLKNEDTATYFCARRINWDGYAMDYWGQGTSVTVSS
# VL: DSVMSQSPSSLAVSVGEKVTMSCKSSQSLLYSGNQKSYLAWYQQKPGQSPKLLIYWASTRESGVPDRFTGSGSGTDFTLTISSVKAEDLAVYYCQQYYSYPYTFGGGTKLEIKR
# B3: LK-RB2-17 (antibody, human IgG4 S228P, kappa, V domains shown)
# VH: B2 VH with T31N, K65R, N85S, T93A
# VL: B2 VL with M21L, T59S, Y100F
# B4: LK-RB2-14 (antibody, human IgG4 S228P, kappa, V domains shown)
# VH: QVQLKQSGPGLVQPSQSLSITCTVSGFSLTSYGVHWVRQSPGKGLEWLGVIWRGGSTDYNAAFMSRLSITKDNSKSQVFFKMNSLQADDTAIYYCAKNEGDSTVVAWYFDVWGTGTTVTVSS
# VL: DIQMTQTTSSLSASLGDRVTISCSASQGISNYLNWFQQKPDGTVKLLIYYTSSLHSGVPSRFSGSGSGTDYSLTISNLEPEDIATYYCQQYSKLPLTFGAGTKLELKR
# B5: LK-RB2-20 (antibody, human IgG4 S228P, kappa, V domains shown)
# VH: QVQLKQPGAERVKPGASVKMSCKASGYTFTRYWITWVKQRPGQGLEWIGDIYPGSATTNYNEKFKSKATLTEDTSSSTAYMQLSSLTSEDSAVYYCARSGDYSNSNYAMDYWGQGTSVTVSS
# VL: NIEMTQSPKSMSMAVGERVTLSCKASENVGTYVSWYQQKPEQSPKLLIYGASNRNTGVPDRFTGSGSATDFTLTISSVQAEDLADYHCGQSYSYPFTFGSGTKLEIKR
# B6: LK-RB2-19 (antibody, human IgG4 S228P, kappa, V domains shown)
# VH: QVQLQQPGAELVKPGASVKLSCKASGYTFTSYWMHWVKQRPGQGLEWIGMIHPNSGGTNYNEKFKSKATLTVDKSSSTAYMQFSSLTSEDSAVYYCARCTVVALYYALDYWGQGTSVTVSS
# VL: QIVLSQSPAILSASPGEKVTMTCRATSRVSYIHWFQQKPGSSPKPWIYVTSNLASGVPARFSGSGSGTSYSLTISKLEAEDVATYYCQQWSTNPLTFGAGTKLELKR
# B7: LK-RB2-21 (antibody, human IgG4 S228P, kappa, V domains shown)
# VH: EVQLVESGGDLVKPGGSLKLSCAASGFTFSSYGMSWVRQTPDKRLEWVATISSGGSYTYYPDSLKGRFTISRDNAKSTLYLQMSSLKSEDTAKYYCARPYYDYIFYAIDYWGQGTSVTVSS
# VL: DIQMNQSPSSLSASLGDTITITCHASQNINVWLSWYQQKPGNIPKLLIYKASNLHTGVPSRFSGSGSGTGFTLTISSLQPEDIATYYCQQGQSYPLTFGGGTKLEIKR
# B8: LK-RB2-12 (antibody, human IgG4 S228P, kappa, V domains shown)
# VH: QIQLVQSGPELKKPGETVKISCKASGYTFTTYGMSWVKQTPGKGLKWMGWINIYSGVPTYADDFKGRFVFSLEISASTAHLQINNLKNEDTATYFCARRKDYSGHCFDYWGQGTTLTVSS
# VL: DIVLTQSPASLAVSPGQRATISCRASESVDTYGISFMHWYQQKPGQPPKLLIYRASNLESGIPARFSGSGSRTDFTLTINPVETDDVAIYYCQQSKKDPYTFGGGTKLEIKR
# B9: LK-RB2-22 (antibody, human IgG4 S228P, kappa, V domains shown)
# VH: B8 VH with P14T, T40A, V69A, I74T, H80Y, K100A, S103D, H105Y, C106Y
# VL: NIVMTQTPKFLLVSAGDRVTITCRASQSVTNDVAWYQQRPGQSLKLLIYYASNRYTGVPDRFTGSGYGTDFTFTISTVQAEDLAVYFCQQGYSSPFTFGSGTKLEIKR
# B10: LK-RB2-15 (antibody, human IgG4 S228P, kappa, V domains shown)
# VH: B8 VH with T40A, I53V, V69A, H80Y, N88D
# VL: B8 VL with P15L, I21F, I89T, D98E
# Biological target: T1, human LILRB2 (human, UniProt Q8N423 22-460, limits assumed)
# T1 construct: also called hLILRB2
# T1 sequence (Q8N423 22-460 limits assumed): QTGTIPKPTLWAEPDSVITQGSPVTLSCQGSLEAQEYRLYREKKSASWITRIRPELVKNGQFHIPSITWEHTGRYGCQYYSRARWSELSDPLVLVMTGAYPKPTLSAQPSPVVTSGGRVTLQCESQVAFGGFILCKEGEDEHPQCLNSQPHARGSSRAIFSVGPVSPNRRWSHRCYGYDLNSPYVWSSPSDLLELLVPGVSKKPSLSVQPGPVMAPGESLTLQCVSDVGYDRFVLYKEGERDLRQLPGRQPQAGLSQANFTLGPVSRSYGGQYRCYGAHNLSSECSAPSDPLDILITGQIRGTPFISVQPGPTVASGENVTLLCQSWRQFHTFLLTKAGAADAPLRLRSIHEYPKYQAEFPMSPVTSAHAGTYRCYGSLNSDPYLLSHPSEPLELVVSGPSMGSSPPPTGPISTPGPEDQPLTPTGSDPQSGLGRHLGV
# Assay: Octet off-rate ranking;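 also: antibody dissociation rate constants against cynomolgus LILRB2 plus human LILRB1, LILRB2, LILRA1 and LILRA2, measured on an Octet instrument to rank binding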
# From the text: Binding affinity of anti-LILRB1 and anti-LILRB2 antibodies against human LILRB1, LILRB2, LILRA1, LILRA2 and cynomolgus LILRB2 was ranked by measuring dissociation rate constant (Kdis) using the Octet system.
row,Binder,koff
1,B1,0.000174 s⁻¹
2,B2,0.00304 s⁻¹
3,B3,0.000926 s⁻¹
4,B4,0.000302 s⁻¹
5,B5,0.000895 s⁻¹
6,B6,0.002 s⁻¹
7,B7,0.000966 s⁻¹
8,B8,0.000662 s⁻¹
9,B9,0.00126 s⁻¹
10,B10,6.22e-05 s⁻¹
